Experimental data published in the DeepSol protein solubility set.

Experiment: soluble on expression in E. coli; label from the status in PepcDB or PDB records

| Sequence | soluble on expression in E. coli |
| --- | --- |
| MNKFHDIFLELEQQIVQGDYQPGDLLPSENQLVETYNVSRETIRKALNLLINAGYIQKKQGKGSIVLNFKKFNFPISGVTSYKELQQTQHIESHTHVVSLEEIPVERNLAQLTGWTEGAPVWRLVRQREIEGEVDILDIDYLIKEIVPELPKHRAEDSIFDYLENDLGLAISYAQKEITVEPLTEMDKQLIGEVEGNHVVVVRSIMNLEDTRCFGYTESRHRLNKFKFVEFARRRKL | not soluble |
| MNKIFIYAGVRNHNSKTLEYTKRLSSIISSRNNVDISFRTPFNSELEISNSDSEELFKKGIDRQSNADDGGVIKKELLESDIIIISSPVYLQNVSVDTKNFIERIGGWSHLFRLAGKFVVTLDVAESNGSDNVSEYLRDIFSYMGGQILHQVSITNSLKDIAEAQLMEATYKIEDVLEGKIKYKTTDYQERAYQTLKLILENYDSEHFEKMYWEKKRLFEANSLEEWYYVENIKLEHHHHHH | soluble |
| MNKKTIQDLIPKAMQAIEGVGIVGKDKKFEKVHEGYINALGPTIIQSGLLPTLIFYNKDKRELWLKALYYMEIISNDIDPTAIIQLIIKEGDSESRQEKTLKELEPKAKEWERKILEYAVALKLALRTFVAKESETGNTEQQKGGAQ | not soluble |
| MNKPLTPSTYIRNLNVGILRKLSDFIDPQEGWKKLAVAIKKPSGDDRYNQFHIRRFEALLQTGKSPTCELLFDWGTTNCTVGDLVDLLVQIELFAPATLLLPDAVPQTVKSLPP | soluble |
| MNKRCEEVLRRYFAEVPFIIEKACELAESMLGEGSHGLSHTIRVLDLALQIGRVEGANLEVLALAAILHDIARPLEDKGRIKDHAQEGARIVRSFLSKLRYPHVDEVAHAIEAHRFSTNIEPRTLEAKILSDADKIDALGAIGIARVFMYAGEKGRSIEDSIKHFEEKILRLKDLMYTETGKRIAQERHKIVEEFVNILKKELIAAALEHHHHHH | soluble |
| MNKRMKMCPACQQGYLYHSKPKYLHDEIILCDECDAVWLKGMNIFYGEYEKDFYSYVPFMESQGITSECIWEGDLFDHPYYEDENSNDMD | not soluble |
| MNKWSRLYVITVRRTFPGRRNIVLTQYWNKSKKMSDESNDVKWNDALTPLQLMVLRDKATERPNTGAYLHTNESGVYHCANCDRPLYSSKAKFDARCGWPAFYEEVSPGAITYHRDNSLMPARVEICCARCGGHLGHVFEGEGWKQLLNLPKDTRHCVNSASLNLKKD | not soluble |
| MNLDELLLLIEKNRSQLSKIDDDFYEKLRERIAELEEMKSSAGESDFFRYEDEIRTLKRLQRKIFELRTGKIISAAWAEVCGQQFSSDVENMCSDERVFFKKLIDIIKEFKRSILEGGKRKISDRVLVRIKKDVEIQGADGKTYKLRREDVVTLPQLNADALIKGGIAERIEVKEDEVSQEGLEHHHHHH | soluble |
| MNLEKINELTAQDMAGVNATILEQLNSDVQLINQLGYYIISGGGKRIRPMIAVLAARAVGYQGNAHVTIAALIEFIHTATLLHDDVVDESDMRRGKATANAAFGNAASVLVGDFIYTRAFQMMTSLGSLKVLEVMSEAVNVIAEGEVLQLMNVNDPDITEENYMRVIYSKTARLFEAAAQCSGILAGCTPEQEKGLQDYGRYLGTAFQLIDDLLDYSADGEHLGKNVGDDLNEGKPTLPLLHAMRHGTPEQSAMIRTAIEQGNGRHLLEPVLEAMTTCGSLEWTRQRAEEEADKAISALQILPDTPWREALIGLAHIAVQRDR | not soluble |
| MNLKSFTRKVSSTRDHRLLAEAIFDQLENLFSPHAIAIFEDPLTNPRCSVSFSRGELYPIQKYPEIFWDWACQFDTSESIIPLAINTCNWNHTQDLGGDSYILMLDNTPIKRTYLLIQSVQARTAHNIYEESYDAMQLAAARWQCIRAEKNASQEMRHRDIREAQYVDEISQRERFIENMKLVQQVALEISNPDSLKDLYYKAVEALRERLGFDRTTLMLLDMKKRSFSGTYGTDESGITIDEFHTQYDLHQLSEEYIAALSSLESNLVIIEDAPIYTAGKVVGQGWNAMLILRDGNEPFGWFALDNFIHRKPITAYQKQMLDSFGSLFSQIYIRKRQEQNVRMLHSSMVELSRCTTVSDVCKSAVTFAIKNLGIDRMAVFLTDENCSYMQGTWGTDIQGNVVDESYFFGETQNFSLINLARAVPSEVAFEESVPIYHDCNIVG | not soluble |
| MNLLKTIEKVKANWGGKYFSIEFVKNPKKVVRDWRNSGGIVVHLTMYGIPIDNIMEKIINKNTKILVVVGSEKVEGWYYYNSDYNIAIGNQPHSEVAALAIFLDRIYKGGELNIQFSDAKLSIIPQERGKKVRKNE | soluble |
| MNLLQHIAQSRQQLRKSELKVADHVLNDPASVMHSSMAELAHGVGVSEPTIVRFCRAIGCSGFQDLKLKLAQSLAAGASFGQFSIHESDSVADFSLKIFDTTLHSLMEVREHLDTHALERAIAAIAHAQRVEFYGFGASGAVASDAQHKFFRLLLSAAAYSDPHMQAMSAVTLKPSDVAICISQSGRSKDLLITANLVREAGATLITLCPSQTPLADLATVNLAIDVHEDTDIYTPLTSRIAHLVVIDVLAMGVAMARGPDLVNHLKSVKRSLRSLRLSPKVMKNQEERGEPS | not soluble |
| MNLLVIGGHERMEKDYMVMAKKKGYKTKVYTTMSSKLNNSIGRPDAVVILTSTVSHKMSRTVESQAKKQDILIVRHKNSLEHHHHHH | soluble |
| MNLNNIRSSMTESTKSKDESMRSHLVKPGSVYDGIEPGELGETTESVQDRVRQLESRNSFLEEQCSQIESEKRYLENQKIKYEREIRKLQSELDRMKTSPLIIGTVIDVIKNDRIIVRSSNGPQFLVNVSQYIDEKKLLPGAKVALNQHTLAIAEVIPSTEEPFVAAMEVIESVEVDYDQIGGLDEQIQELQEAVELPLTSPERFARIGIEPPKGVLLYGLPGTGKTLLAKAVAHRTNATFIRVVGSELVQKYIGDGSKLVREIFEMARKKAPSIIFIDELDSIAARRLNETTGADREVQRTLMQLLAEMDGFDKRKNIRIIAATNRPDVLDPAILRPGRFDRLVHVPMPGIEARGKILKIHCEKMTLAEDIDFKKLAKATEGMSGADLKAIATEAGMFAVRRDKELVEMEEFLEAVEKVSMAADTQKMMPSNLPETMFV | not soluble |
| MNMNKETHICALCERKVPKITEHHLIPREKGGRFDETTWLCVPCHKQVHALYSNYELAVRLNSLPRLKDDEKIKRYLKFIKKQPGDANVTIKKSKAIRKKGRYLEHHHHHH | not soluble |
| MNNAHEENISSVTGFKSTSGSPAIGSSLPGRSGEGRSSSSSSGSTALLAVVNSTLKAIFSNTLDSIFHMVCTDSDKRLSSEFHCLQSMFNLQLFVNLGCPLS | soluble |
| MNNAMQLLQPYPFKKLRALLGSVTPNPEKRPVALSIGEPKHRSPDFVAKALADNLDQMAVYPTTLGIPALREAIAGWCNRRFGVPQGWIDPARNVLPVNGTREALFAFTQTVVNRSDDGLVVSPNPFYQIYEGAAFLAGAQPHYLPCLSDNGFNPDFDAVDADIWKRCQILFLCSPGNPTGALIPVETLKKLIALADEHDFVIAADECYSELYFDEQTPPPGLLSACVELGRQDFKRCVVFHSLSKRSNLPGLRSGFVAGDAEILKAFLLYRTYHGCAMPVQTQLASIAAWNDEEHVRANRDLYREKFDAVLDILAPVLDVQRPDGGFYLWPNVGTDDAAFCRDLFVDQHVTAVPGSYLSREVDGVNPGAGRVRLALVAPLAECIEAAERIRAFVLK | not soluble |
| MNNFFKHTLETHTPQSMSKITSYIREDIKNSNIENGIVVVYCPHTTAGITINENADPDVVKDLIYGFEKVYPTNDHKYRHFEGNSHSHLKSSTVGVSQQLILHRGRLILGQWQDVYFCDFDGPRNRTFYVKILEGLEHHHHHH | not soluble |
